This note sets out measurements from patent publication US20200255836, “NUCLEIC ACID APTAMER FOR INHIBITING ACTIVITY OF GENOME-EDITING ENZYME” (NATIONAL INSTITUTE OF ADVANCED INDUSTRIAL SCIENCE AND …, published 2020).

Series [1] addresses T1, Cas9 (His-Cas9) (Streptococcus pyogenes, UniProt Q99ZW2 Q99ZW2:1-1368). Description: EMSA; Cas9 without guide; 250 mM NaCl, 1 mM MgCl2, tRNA. To be noted: tags: His tag, expressed in E. coli; hairpin, 7-base loop. How it is done: (§1) The interaction between Cas9 protein and each nucleic acid aptamer having inhibitory activity was analyzed by gel shift assay. The detailed experimental conditions are as follows.
(§2) Amounts of 2 pmol of Cas9 protein and 20 pmol of each nucleic acid aptamer (s21, s21-2, s21-mm2, tetra, and St2-1SA (aptamer against streptavidin)) were incubated at normal temperature for 30 minutes in a binding buffer (20 mM Tris/HCl pH 8.0, 250 mM NaCl, 1 mM MgCl₂, 2.5% glycerol, 0.05% Tween-20, and 0.05 mg/ml tRNA). Then, the obtained product was electrophoresed on 8% acrylamide gel, and the gel was stained with SYBR Gold (Thermo Fisher Scientific Inc.), followed by analysis with Bio-Rad ChemiDoc XRS image analysis system (Bio-Rad Laboratories, Inc.). The sequence of St2-1SA is as described below (Table 13).

For series [2], the target named is T1, Cas9 (His-Cas9). Description: EMSA; no complex band; 250 mM NaCl, 1 mM MgCl2, tRNA. To be noted: tags: His tag, expressed in E. coli; hairpin. How it is done: as §1, §2
Series [3] addresses T1, Cas9 (His-Cas9). Description: EMSA; negative control; no complex band. The settings on record: tags: His tag, expressed in E. coli. How it is done:
as §1, §2

The target in series [4] is T1, Cas9 (His-Cas9). Description: SPR; 5'-biotin s21 immobilized; Cas9 without guide; 20 mM Tris pH 8.0, 150 mM NaCl, 1 mM MgCl2. The settings on record: tags: His tag, expressed in E. coli; hairpin (stem-loop). How it is done: In order to calculate the dissociation constant (Kd) between Cas9 protein and each nucleic acid aptamer, surface plasmon resonance analysis was conducted. The detailed experimental approach was as follows.
5′-Biotinylated s21 was prepared and was immobilized on a streptavidin sensor chip (GE Healthcare Japan Corp.). Then, different concentrations (2.5 nM, 5 nM, 10 nM, and 20 nM) of Cas9 protein were loaded in a running buffer (20 mM Tris/HCl pH 8.0, 150 mM NaCl, 1 mM MgCl₂, and 0.005% Tween-20) to obtain sensorgrams. Kd was calculated with Biacore evaluation software package (GE Healthcare Japan Corp., Ver 2.0). Tetra was used as a control to conduct a similar test.

T1 sequence (Q99ZW2 whole entry, one chain of several): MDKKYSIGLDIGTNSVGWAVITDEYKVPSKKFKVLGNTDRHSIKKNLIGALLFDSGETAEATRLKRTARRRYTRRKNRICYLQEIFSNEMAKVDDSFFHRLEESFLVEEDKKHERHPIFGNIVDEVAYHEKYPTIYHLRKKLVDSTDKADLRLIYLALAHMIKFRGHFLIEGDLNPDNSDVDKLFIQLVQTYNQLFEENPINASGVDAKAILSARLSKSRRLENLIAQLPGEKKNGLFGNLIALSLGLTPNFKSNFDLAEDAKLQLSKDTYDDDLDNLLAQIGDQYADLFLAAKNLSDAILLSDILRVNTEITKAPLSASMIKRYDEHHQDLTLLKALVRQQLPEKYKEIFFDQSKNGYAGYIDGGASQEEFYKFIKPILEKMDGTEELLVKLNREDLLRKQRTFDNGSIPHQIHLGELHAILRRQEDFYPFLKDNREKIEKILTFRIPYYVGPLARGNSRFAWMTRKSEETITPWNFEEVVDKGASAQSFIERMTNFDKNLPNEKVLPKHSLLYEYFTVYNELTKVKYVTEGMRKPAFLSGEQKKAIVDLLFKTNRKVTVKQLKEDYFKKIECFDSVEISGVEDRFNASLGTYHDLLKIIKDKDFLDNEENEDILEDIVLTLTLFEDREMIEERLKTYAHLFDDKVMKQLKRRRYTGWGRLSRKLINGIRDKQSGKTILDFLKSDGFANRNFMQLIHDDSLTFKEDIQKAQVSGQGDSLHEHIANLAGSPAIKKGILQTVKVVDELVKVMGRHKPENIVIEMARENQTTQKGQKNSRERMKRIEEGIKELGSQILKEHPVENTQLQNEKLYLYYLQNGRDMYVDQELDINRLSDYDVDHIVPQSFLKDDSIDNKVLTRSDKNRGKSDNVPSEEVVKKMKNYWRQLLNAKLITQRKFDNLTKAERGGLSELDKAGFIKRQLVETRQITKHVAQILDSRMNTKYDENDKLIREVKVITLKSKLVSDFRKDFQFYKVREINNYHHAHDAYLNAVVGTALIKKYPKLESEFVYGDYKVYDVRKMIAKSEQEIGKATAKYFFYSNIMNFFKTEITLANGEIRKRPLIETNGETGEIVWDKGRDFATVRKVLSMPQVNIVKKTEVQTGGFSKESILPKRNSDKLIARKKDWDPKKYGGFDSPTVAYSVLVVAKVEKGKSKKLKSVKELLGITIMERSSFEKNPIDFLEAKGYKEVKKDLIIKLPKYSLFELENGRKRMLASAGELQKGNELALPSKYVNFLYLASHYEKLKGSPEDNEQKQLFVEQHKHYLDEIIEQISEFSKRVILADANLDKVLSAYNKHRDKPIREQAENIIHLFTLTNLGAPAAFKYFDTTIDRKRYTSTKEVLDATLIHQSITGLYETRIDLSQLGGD

GAGGCTCTCACATCGCGCCTTTCGGTGTGAGAGCCTC (ssDNA) [s21-2]: the binding result with Cas9 (His-Cas9) [1] is reported as “binds”. For GAGGCTCTCACAGCGCGCCTTTCGTTGTGAGAGCCTC (ssDNA) [s21-2mm2], the binding result in the series with Cas9 (His-Cas9) [2] is “no binding”. With ATTGACCGCTGTGTGACGCAACACTCAAT (ssDNA) [St2-1SA (streptavidin aptamer)], in the series with Cas9 (His-Cas9) [3], the binding result is reported as “no binding”. Regarding GAGGCTCTCACATCGCGCCTTTCCCCAGCTTTCGGTGTGAGAGCCTC (ssDNA) [s21], the affinity with Cas9 (His-Cas9) [4], expressed as Kd, was 0.57 nM.
